Consider seven molecules from patent US20230365684A1 (Janssen / Centocor, published 2023).

Where two headings read alike, the source gives them in different places.

Test [1] deals with T1, human CD33 on cells (MOLM-13, Kasumi-1, OCI-AML-3, Kasumi-3) (human, UniProt P20138 18-364).
T1 construct: whole, on cells; also called CD33 expressing cells; CD33+ cell lines
As to the kind of experiment: flow cytometry on MOLM-13 cells, 4 °C, serial dilutions of the antibody. A general note: In flow cytometry, cells or beads pass a laser one at a time.
Procedure: (§1) Cells were harvested, washed once with PBS and then stained with the fixable viability dye at room temperature for 30 min. Following incubation, cells were washed twice with FACS buffer (PBS+2% FBS). Cells were then used for binding assay with test antibodies. 100,000 cells were stained with the test antibodies in a 100 ul staining volume. Antibodies for staining were diluted in FACS buffer and incubated with the cells for 40 mins on ice, followed by washing 2X with FACS buffer. Test antibodies were then detected using the PE conjugated Goat F(ab′)2 Anti-Human IgG-Fc (ab98596; Abcam) for 40 minutes on ice. Following washing, data was acquired on the Novocyte flow cytometer (ACEA). Cells were gated on FSC/SSC, followed by live cell gating and doublet discrimination. Data was analyzed using Flow Jo (BD).
(§2) Median fluorescence intensity values were used to plot a 4-parameter non-linear regression analysis curve after subtracting the MFI of the secondary only sample.
(§3) The binding EC₅₀ values of CD33 antibodies to high (MOLM-13), medium (Kasumi-1) and low (OCI-AML-3) cell lines were assayed. Binding was carried out at 4° C. with serial dilutions of the antibody.

The target of test [2] is T1, human CD33 on cells (MOLM-13, Kasumi-1, …). Kind of test: flow cytometry on Kasumi-1 cells, 4 °C, serial dilutions of the antibody.
Procedure: as §1, §2, §3
The target is the same in test [3]. Kind of test: flow cytometry on OCI-AML-3 cells, 4 °C, serial dilutions of the antibody.
Procedure: as §1, §2, §3
The target is the same in test [4]. Kind of test: flow cytometry on OCI-AML-3 cells, 4 °C, detection with PE goat F(ab')2 anti-human IgG-Fc [contd].
The target in test [5] is T2, human CD33 (full length ECD), recombinant (human, UniProt P20138 18-259).
T2 construct: extracellular domain; Tag or HSA fusion partner unknown; also called hu CD33 (FL ECD); hCD33-FL ECD
Kind of test: SPR (Biacore 8K), antibody captured by anti-human Fc, antigen in solution. In general terms: SPR reads the build-up and loss of mass on a sensor chip optically.
Procedure: (§4) Affinities (KD) for the interaction of anti-CD33 antibodies human CD33 (full length ECD and IgC2 domain) were obtained by SPR. The anti-CD33 antibodies were captured using an anti-human Fc antibody and the antigens were injected in solution.
(§5) The binding affinity of anti-CD33 antibodies and Llama vHHs to the recombinant human CD33 (FL ECD or IgC2 domain) was determined by surface plasmon resonance (SPR) using Biacore 8K instrument. […] The association and dissociation were monitored for 2 and 30 minutes, respectively, using a flow rate of 50 μL/min. Raw binding data was referenced by subtracting the analyte binding signals from blanks and analyzed using a 1:1 Langmuir binding model using the Biacore software to obtain the kinetics which were used to calculate the binding affinity.

Test [6] addresses T3, human CD33 IgC2 domain, recombinant (human, UniProt P20138 136-259).
T3 construct: domain: IgC2; also called hu CD33 (IgC2); hCD33-IgC2
The test is described as above.
Procedure: as §4, §5

The target in test [7] is T1, human CD33 on cells (MOLM-13, Kasumi-1, …). Kind of test: flow cytometry on OCI-AML-3 cells, 4 °C, detection with PE goat F(ab')2 anti-human IgG-Fc [contd]. This is another data set of the same source.
For test [8] the target is unchanged. As to the kind of experiment: flow cytometry on MOLM-13 cells, 4 °C, detection with PE goat F(ab')2 anti-human IgG-Fc.
Test [9] concerns the target T2, human CD33 (full length ECD), …. Kind of test: SPR (Biacore 8K), vHH-mono-Fc captured by anti-human Fc, antigen in solution.
Procedure: as §5
(§6) The anti-CD33 Llama vHHs on a mono-Fc backbone were captured using an anti-human Fc antibody and the antigens were injected in solution.
The target in test [10] is T3, human CD33 IgC2 domain, recombinant. The description is as above.
Procedure: as §5, §6
The target is the same in test [11]. Kind of test: SPR, Biacore 8K, 25 °C, vHH-mono-Fc captured by anti-Fc antibody, CD33-hu-domain injected as analyte, 1:1 binding model.
Procedure: as §5, §6
In test [12] the target is T2, human CD33 (full length ECD), …. Kind of test: SPR, Biacore 8K, 25 °C, vHH-mono-Fc captured by anti-Fc antibody, CD33-hu-FL injected as analyte, 1:1 binding model [contd].
Procedure: as §5, §6
Test [13] shares this target. Described as above. This is another data set of the same source.
Procedure: as §5, §6
For test [14], the target named is T3, human CD33 IgC2 domain, recombinant. Kind of test: SPR, Biacore 8K, 25 °C, vHH-mono-Fc captured by anti-Fc antibody, CD33-hu-domain injected as analyte, 1:1 binding model [contd].
Procedure: as §5, §6
In test [15] the target is T1, human CD33 on cells (MOLM-13, Kasumi-1, …). As to the kind of experiment: flow cytometry on MOLM-13 cells, 4 °C, detection with PE goat F(ab')2 anti-human IgG-Fc. This is another data set of the same source.
Procedure: MOLM-13, Kasumi-1, OCI-AML-3 and HDLM-2 cells were stained for viability by fixable violet dead cell stain (L34955, ThermoFisher) according to the manufacturer's protocol. Cells were harvested, washed once with PBS and then stained with the fixable viability dye at room temperature for 30 min. Following incubation, cells were washed twice with FACS buffer (PBS+2% FBS). Cells were then used for binding assay with test antibodies. 100,000 cells were stained with the test antibodies in a 100 ul staining volume. Antibodies for staining were diluted in FACS buffer and incubated with the cells for 40 mins on ice, followed by washing 2X with FACS buffer. Test antibodies were then detected using the PE conjugated Goat F(ab′)2 Anti-Human IgG-Fc (ab98596; Abcam) for 40 minutes on ice. Following washing, data was acquired on the Novocyte flow cytometer (ACEA). […] Data was analyzed using Flow Jo (BD).
as §2
Binding was performed by incubating the cells with the serial dilutions of the CD33 antibody at 4° C. followed by detection with PE conjugated Goat F(ab′)2 Anti-Human IgG-Fc antibody. […] Median fluorescence intensity (MFI) versus log concentration of antibody are plotted.

T1 sequence (P20138 18-364): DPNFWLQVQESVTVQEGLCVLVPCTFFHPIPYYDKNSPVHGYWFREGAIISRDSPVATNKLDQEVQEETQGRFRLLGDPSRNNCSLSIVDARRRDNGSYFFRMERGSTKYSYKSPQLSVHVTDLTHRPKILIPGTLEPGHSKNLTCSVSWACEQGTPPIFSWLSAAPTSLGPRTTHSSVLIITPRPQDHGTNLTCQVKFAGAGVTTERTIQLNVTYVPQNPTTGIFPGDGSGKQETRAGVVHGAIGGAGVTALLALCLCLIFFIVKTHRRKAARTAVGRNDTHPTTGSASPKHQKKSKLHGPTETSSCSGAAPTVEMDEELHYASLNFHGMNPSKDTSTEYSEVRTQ
T2 sequence (P20138 18-259): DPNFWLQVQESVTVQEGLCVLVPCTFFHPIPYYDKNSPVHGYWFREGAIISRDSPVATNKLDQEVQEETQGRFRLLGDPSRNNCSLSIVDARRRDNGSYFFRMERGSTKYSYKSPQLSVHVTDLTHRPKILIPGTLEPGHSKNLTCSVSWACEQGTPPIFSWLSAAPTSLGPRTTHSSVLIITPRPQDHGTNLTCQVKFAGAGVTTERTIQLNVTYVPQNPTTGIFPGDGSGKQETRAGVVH
T3 sequence (P20138 136-259 limits assumed): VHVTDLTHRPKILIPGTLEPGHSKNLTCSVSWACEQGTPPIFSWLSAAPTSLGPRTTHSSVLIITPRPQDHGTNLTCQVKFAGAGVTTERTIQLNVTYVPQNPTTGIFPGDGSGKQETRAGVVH

B1: C33B806.006 (antibody, V domains shown)
VH: QLQLQESGPGLVKPSETLSLTCTVSGGSISSSSYYWGWIRQPPGKGLDWIGSINYSGSTYYNPSLKSRVTISVDTSKIQFSLKLRSVTAADTAVYYCARLDGYESPFDYWGQGTLVTVSS
VL: DIQMTQSPSSVSASVGDRVTITCRASQGISSWLAWYQQKPGKAPKLLIYAASSLQSGVPSRFSGSGSGTDFTLTISSLQPEDFATYYCQQANSFPFTFGPGTKVDIK
Consider B1, for which the values for the EC50 in test [1], in test [2] and in test [3] were 35.6 nM, 0.13 nM and 15.3 nM, respectively. Besides, in test [4], the “EC50 (read off the curve)” value is approximately 2 µg/mL.

B2: C33B1522 (antibody, V domains shown)
VH: QVQLQESGPGLVKPSETLSLTCTVSGGSISSYYWGWIRQPPGKGLEWIGYIYYSGSTNYNPSLKSRVTISVDTSKNQFSLKLSSVTAADTAVYYCARMWEILGFDPWGQGTLVTVS
VL: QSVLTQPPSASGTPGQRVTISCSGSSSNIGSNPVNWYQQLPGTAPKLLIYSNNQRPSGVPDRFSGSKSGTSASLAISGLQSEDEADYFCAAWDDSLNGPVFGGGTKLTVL
On to B2, for which the Kd in [5] is more than 10 nM. The binding result in test [6] is listed as “no binding (tested: 40 nM-1.6 nM CD33 antigen)”. Moreover, the EC50 stood at 32.7 nM in test [1] and 73.4 nM in [2].

B3: C33B1477 (antibody, V domains shown)
VH: EVQLVESGGGLVQPGGSLKVSCEASGFTFSVSAIHWVRQASGKGLEWIGRIRSKGNSYATAYAASVKGRFTISRDDSKNTAYLQMDSLKTEDTAVYYCTRHNDKWNYYGLDVWGQGTTVTVSS
VL: DIVMTQSPLSLPVTPGEPASISCKSSQSLLFSNGYKFLDWYLQRPGQSPQLLIYLGSYRASGVPDRFSGSGSGTDFTLKISRVEAEDVGLYYCMQALQTPPTFGGGTKVEIK
notes: also called sCD33B1477
Turning to B3, the EC50 in [1] was 56 nM; in test [3], 0.6 nM. Moreover, the “EC50 (read off the curve)” value in test [7] is approximately 0.09 µg/mL.

B4: C33B1484 (antibody, V domains shown)
VH: EVQLVESGGGLVQPGGSLKVSCEASGFTFSVFAIHWVRQASGKGLEWIGRIRSKGNSYATAYDVSVKGRFTISRDDSKNTAYLQMDSLKTEDTAVYYCTRHNDKWNYYGLDVWGQGTTVTVSS
VL: DIVMTQSPLSLPVTPGEPASISCKSSQSLLFSNGYKFLDWYLQRPGQSPQLLIYLGSYRASGVPDRFSGSGSGTDFTLKISRVEAEDVGLYYCMQALQTPPTFGQGTKVEIK
notes: also called sCD33B1484
As to B4, the binding result in test [8] is reported as “binds”.

B5: C33B1780 (llama vHH on mono-Fc backbone) (Fc fusion)
chain: EVQLVESGGGLVQPGGSLRLSCAVFGFSLSDYAIGWFRQAPGKEREKVSCISESDGRTYLSDSVKSRFTISRDNGKNTVYLQMNNLKPDDTGVYYCATVDQAISESSYHCEKGFGSWGQGTQVTVSS
notes: not shown: mono-Fc backbone
Consider B5, for which the values for the Kd in [9] and in test [10] were 0.847 nM and 3.38 nM, respectively. Besides, the kon was 962000 M⁻¹ s⁻¹ in [11] and 1.38e+06 M⁻¹ s⁻¹ in [12]. For the same molecule, the off-rate (koff) in test [12] is 0.00117 s⁻¹.

B6: C33B1785 (llama vHH on mono-Fc backbone) (Fc fusion)
chain: QVQLVESGGGSVQPGGSLRLSCAVFGFSLSDYAIGWFRQAPGKEREKVSCISESDGRTYLSDSVKSRFTISRDNGKNTVYLQMNNLKPDDTGVYYCATVDQAISESSYHCEKGFGSWGQGTQVTVSS
notes: not shown: mono-Fc backbone
Regarding B6, the Kd in test [9] came out at 0.661 nM; in [10], 3.31 nM. The koff in test [13] is 0.000928 s⁻¹; in test [14], 0.0034 s⁻¹. Besides, the kon amounted to 1.4e+06 M⁻¹ s⁻¹ in [13] and 1.03e+06 M⁻¹ s⁻¹ in [14].

B7: C33B836.006 (antibody, V domains shown)
VH: QVQLVQSGSELRKPGASVKVSCKASGYTFTNYAMNWVRQAPGQGLEWMGWINTNTGNPTYAQGFTGRFVFSLDTSVSSAYLQISSLKAEDTAMYYCATDRDRGTDYWGQGTLVTVSS
VL: QSALTQPASVSGSPGQSITISCTGTSSDVGDYNYVSWYQQHPGKVPKLMIYDVSNRPSGVSNRFSGSMSGNTASLTISGLQAEDEADYYCSSYSSSSALEVFGGGTKLTVL
notes: also called sC33B836.006
As to B7, the EC50 in test [1] worked out at 0.5 nM; in test [2], 17.1 nM; in test [3] it was 0.46 nM. Further, the “EC50 (read off the curve)” value in test [15] and in test [4] was approximately 0.08 µg/mL throughout.

Usually EC50 stands for the concentration giving half of the maximal effect. By EC50 (read off the curve) is commonly meant the concentration at which the effect is half-maximal. Read a low EC50 (read off the curve) as higher potency in that assay. As usually defined, the Kd is the equilibrium constant for the complex coming apart. For orientation: kon means a measure of how fast the partners come together. Broadly, the koff is a measure of how fast the partners let go of each other.
